Laboratory results published in US11844843 (DYNE THERAPEUTICS, dated 2023).
Substitutions are numbered along the chain they refer to. Names and notes keep the numbering of the source.

B1: humanized anti-TfR Fab 5H12 VH5 (C33Y)/Vκ4 (Fab, V domains shown)
VH: QVQLVQSGAEVKKPGASVKVSCKASGYSFTDYYINWVRQAPGQGLEWMGWIYPGSGNTRYSERFKGRVTITRDTSASTAYMELSSLRSEDTAVYYCAREDYYPYHGMDYWGQGTLVTVSS
VL: DIVMTQSPDSLAVSLGERATINCRASESVDGYDNSFMHWYQQKPGQPPKLLIFRASNLESGVPDRFSGSGSGTDFTLTISSLQAEDVAVYYCQQSSEDPWTFGQGTKLEIKR
notes: also called 5H12 (VH5-C33Y/Vk4)
B2: humanized anti-TfR Fab 5H12 VH5 (C33Y)/Vκ3 (Fab, V domains shown)
VH: B1 VH
VL: B1 VL with M4L, G72R
notes: also called 5H12 (VH5-C33Y/Vk3)
B3: humanized anti-TfR Fab 3A4 VH3 (N54T)/Vκ4 (Fab, V domains shown)
VH: EVQLVQSGSELKKPGASVKVSCTASGFNIKDDYMYWVRQPPGKGLEWIGWIDPETGDTEYASKFQDRVTVTADTSTNTAYMELSSLRSEDTAVYYCTLWLRRGLDYWGQGTLVTVSS
VL: DIVMTQSPLSLPVTPGEPASISCRSSKSLLHSNGYTYLFWFQQRPGQSPRLLIYRMSNLASGVPDRFSGSGSGTDFTLKISRVEAEDVGVYYCMQHLEYPFTFGGGTKVEIKR
notes: also called 3A4 (VH3-N54T/Vk4)
B4: humanized anti-TfR Fab 3A4 VH3 (N54S)/Vκ4 (Fab, V domains shown)
VH: B3 VH with T55S
VL: B3 VL
notes: also called 3A4 (VH3-N54S/Vk4)
B5: conjugate of humanized anti-TfR Fab 5H12 VH5 (C33Y)/Vκ4 with DMPK-targeting oligonucleotide ASO300 (Fab, V domains shown)
VH: B1 VH
VL: B1 VL
modifications: oligonucleotide ASO300 conjugated to the Fab via linker; residue and chain not stated

Experiments:
[1] = target: T1, recombinant cynomolgus monkey (Macaca fascicularis) TfR1 (cynomolgus monkey (Macaca fascicularis), UniProt Q5RDH6 87-760 (Pongo abelii entry), limits assumed); assay: ELISA on plate-coated recombinant cTfR1 (target per paragraph 617), fluorescent anti-(H+L) IgG-A488 detection, % normalized RFUs
T1 construct: Recombinant protein; also called cTfR1; cyTfR1
T1 chain: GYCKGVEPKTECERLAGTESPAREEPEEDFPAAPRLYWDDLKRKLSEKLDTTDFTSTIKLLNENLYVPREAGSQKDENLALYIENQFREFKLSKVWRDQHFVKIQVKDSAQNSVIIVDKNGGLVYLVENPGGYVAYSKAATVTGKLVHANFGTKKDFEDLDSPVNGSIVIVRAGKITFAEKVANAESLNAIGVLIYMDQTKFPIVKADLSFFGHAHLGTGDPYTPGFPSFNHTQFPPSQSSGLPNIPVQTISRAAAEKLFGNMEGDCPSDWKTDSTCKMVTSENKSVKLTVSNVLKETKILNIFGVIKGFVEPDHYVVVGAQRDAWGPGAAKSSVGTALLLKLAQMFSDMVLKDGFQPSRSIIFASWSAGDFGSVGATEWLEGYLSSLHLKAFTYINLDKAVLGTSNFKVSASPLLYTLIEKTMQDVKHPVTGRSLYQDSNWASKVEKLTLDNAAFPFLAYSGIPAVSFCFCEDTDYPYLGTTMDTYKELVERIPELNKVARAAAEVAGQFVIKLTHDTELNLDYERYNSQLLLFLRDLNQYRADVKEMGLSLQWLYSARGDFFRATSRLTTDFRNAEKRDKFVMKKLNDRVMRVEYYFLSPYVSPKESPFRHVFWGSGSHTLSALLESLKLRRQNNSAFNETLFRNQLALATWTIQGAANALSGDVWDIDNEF
Protocol: (§1) To measure binding of humanized anti-TfR antibodies to TfR1, ELISAs were conducted. High binding, black, flat bottom, 96 well plates (Corning #3925) were first coated with 100 μL/well of recombinant huTfR1 at 1 μg/mL in PBS and incubated at 4° C. overnight. Wells were emptied and residual liquid was removed. Blocking was conducted by adding 200 μL of 1% BSA (w/w) in PBS to each well. Blocking was allowed to proceed for 2 hours at room temperature on a shaker at 30) rpm. After blocking, liquid was removed and wells were washed three times with 300 μL of TBST. Anti-TfR1 antibodies were then added in 0.5% BSA/TBST in triplicate in an 8 point serial dilution (dilution range 5 μg/mL-5 ng/mL). A positive control and isotype controls were also included on the ELISA plate. The plate was incubated at room temperature on an orbital shaker for 60 minutes at 300 rpm, and the plate was washed three times with 300 μL of TBST. Anti-(H+L)IgG-A488 (1:500) (Invitrogen #A11013) was diluted in 0.5% BSA in TBST, and 100 μL was added to each well. The plate was then allowed to incubate at room temperature for 60 minutes at 300 rpm on orbital shaker. The liquid was removed and the plate was washed four times with 300 μL of TBST. Absorbance was then measured at 495 nm excitation and […] (with a 15 nm bandwidth) on a plate reader. Data was recorded and analyzed for $EC50$. […]

[2] = target: T2, recombinant human TfR1 (transferrin receptor protein 1) (human, UniProt P02786 89-760); assay: ELISA, recombinant TfR1 coated, unconjugated Fab (row 'Fab binding affinity ELISA')
T2 construct: Recombinant protein in SPR and ELISA; they were assigned to this molecule; also called hTfR1; huTfR1

[3] = target: T1, recombinant cynomolgus monkey (Macaca …); assay: as above
[4] = target: T2, recombinant human TfR1 (transferrin …); assay: Biacore, d0; TfR1 species not stated
[5] = target: T2, recombinant human TfR1 (transferrin …); assay: Table 14, unconjugated Fab, d0; method not named (values equal ELISA row of Table 13)
[6] = target: T1, recombinant cynomolgus monkey (Macaca …); assay: as above
[7] = target: T2, recombinant human TfR1 (transferrin …); assay: ELISA on hTfR1, unconjugated Fab, % normalized RFUs
[8] = target: T2, recombinant human TfR1 (transferrin …); assay: ELISA on plate-coated recombinant hTfR1, fluorescent anti-(H+L) IgG-A488 detection, % normalized RFUs
Protocol: To measure binding of humanized anti-TfR antibodies to TfR1, ELISAs were conducted. High binding, black, flat bottom, 96 well plates (Corning #3925) were first coated with 100 μL/well of recombinant huTfR1 at 1 μg/mL in PBS and incubated at 4° C. overnight. Wells were emptied and residual liquid was removed. Blocking was conducted by adding 200 μL of 1% BSA (w/w) in PBS to each well. Blocking was allowed to proceed for 2 hours at room temperature on a shaker at 30) rpm. After blocking, liquid was removed and wells were washed three times with 300 μL of TBST. Anti-TfR1 antibodies were then added in 0.5% BSA/TBST in triplicate in an 8 point serial dilution (dilution range 5 μg/mL-5 ng/mL). A positive control and isotype controls were also included on the ELISA plate. The plate was incubated at room temperature on an orbital shaker for 60 minutes at 300 rpm, and the plate was washed three times with 300 μL of TBST. Anti-(H+L)IgG-A488 (1:500) (Invitrogen #A11013) was diluted in 0.5% BSA in TBST, and 100 μL was added to each well. The plate was then allowed to incubate at room temperature for 60 minutes at 300 rpm on orbital shaker. The liquid was removed and the plate was washed four times with 300 μL of TBST. Absorbance was then measured at 495 nm excitation and […] (with a 15 nm bandwidth) on a plate reader. Data was recorded and analyzed for $EC50$. […] ELISA measurements were conducted using cynomolgus monkey (Macaca fascicularis) TfR1 (cTfR1) according to the same protocol described above for hTfR1, and results are shown in FIGS. 9B, 9D, and 9F.

[9] = target: T1, recombinant cynomolgus monkey (Macaca …); assay: ELISA on cTfR1, unconjugated Fab, % normalized RFUs
[10] = target: T2, recombinant human TfR1 (transferrin …); assay: Biacore, d25; TfR1 species not stated
[11] = target: T2, recombinant human TfR1 (transferrin …); assay: Table 14, unconjugated Fab, d9 (after 9 days at 40 C); method not named
[12] = target: T1, recombinant cynomolgus monkey (Macaca …); assay: as above
[13] = target: T2, recombinant human TfR1 (transferrin …); assay: kinetic analysis (Biacore), Table 7; TfR1 species not stated
[14] = target: T1, recombinant cynomolgus monkey (Macaca …); assay: ELISA on cTfR1, unconjugated Fab, % normalized RFUs
[15] = target: T1, recombinant cynomolgus monkey (Macaca …); assay: ELISA on plate-coated recombinant cTfR1, fluorescent anti-(H+L) IgG-A488 detection, % normalized RFUs
Protocol: as §1

[16] = target: T2, recombinant human TfR1 (transferrin …); assay: ELISA on hTfR1, unconjugated Fab, % normalized RFUs; remark: listed apart in the source
[17] = target: T1, recombinant cynomolgus monkey (Macaca …); assay: ELISA on cTfR1, Fab conjugated to DMPK-targeting oligonucleotide, % normalized RFUs
[18] = target: T2, recombinant human TfR1 (transferrin …); assay: Table 14, Fab-ASO300 conjugate; method not named
[19] = target: T1, recombinant cynomolgus monkey (Macaca …); assay: Table 14, Fab-ASO300 conjugate; method not named
[20] = target: T2, recombinant human TfR1 (transferrin …); assay: ELISA, recombinant TfR1 coated, Fab-ASO300 conjugate (row 'Conjugate binding affinity ELISA')
[21] = target: T1, recombinant cynomolgus monkey (Macaca …); assay: as above
[22] = target: T2, recombinant human TfR1 (transferrin …); assay: ELISA on hTfR1, Fab conjugated to DMPK-targeting oligonucleotide, % normalized RFUs

Binder	EC50 [1] [nM]	EC50 [2] [nM]	EC50 [3] [nM]	Kd [4] [nM]	Binding affinity [5] [nM]	Binding affinity [6] [nM]	EC50 [7] [nM]	EC50 [8] [nM]	EC50 [9] [nM]	Kd [10] [nM]	Binding affinity [11] [nM]	Binding affinity [12] [nM]	Kd [13] [nM]	koff [13] [s⁻¹]	kon [13] [M⁻¹ s⁻¹]	EC50 [14] [nM]	EC50 [15] [nM]	EC50 [16] [nM]	other results
B1	3.4	2.8	3.3	0.626	2.8	3.3	> 100	> 100	3.4	1.33	1730	0.26	0.626	0.000117	186000	–	–	–	–
B2	2	6.3	2.1	0.627	6.3	2.1	> 100	> 100	2	1.07	71.9	0.69	0.627	0.000122	195000	–	–	–	–
B3	–	2.6	156	3.09	2.6	156	–	2.3	–	3.01	0.4	128	3.09	0.000705	228000	> 100	> 100	2.3	–
B4	–	1.6	398	1.34	1.6	398	–	1.9	–	1.39	0.65	248	1.34	–	–	> 100	> 100	1.9	–
B5	–	–	–	–	–	–	–	–	–	–	–	–	–	–	–	–	–	–	EC50 [17]: 2.8 nM; DMPK oligo conjugate binding [18]: 13.9 nM; DMPK oligo conjugate binding [19]: 13.9 nM; EC50 [20]: 23.7 nM; EC50 [21]: 3.3 nM; EC50 [22]: 25.5 nM
